The source of these data is patent US7119077B1, “Multimeric forms of members of the steroid/thyroid superfamily of receptors with the ultraspiracle receptor” (The Salk Institute for Biological Studies, priority 1990, dated 2006).

Data set [1] has as its target T1, EcR/usp heterodimer (Drosophila melanogaster, UniProt P34021;P20153 P34021:1-878,P20153:1-508).
T1 sequence 1: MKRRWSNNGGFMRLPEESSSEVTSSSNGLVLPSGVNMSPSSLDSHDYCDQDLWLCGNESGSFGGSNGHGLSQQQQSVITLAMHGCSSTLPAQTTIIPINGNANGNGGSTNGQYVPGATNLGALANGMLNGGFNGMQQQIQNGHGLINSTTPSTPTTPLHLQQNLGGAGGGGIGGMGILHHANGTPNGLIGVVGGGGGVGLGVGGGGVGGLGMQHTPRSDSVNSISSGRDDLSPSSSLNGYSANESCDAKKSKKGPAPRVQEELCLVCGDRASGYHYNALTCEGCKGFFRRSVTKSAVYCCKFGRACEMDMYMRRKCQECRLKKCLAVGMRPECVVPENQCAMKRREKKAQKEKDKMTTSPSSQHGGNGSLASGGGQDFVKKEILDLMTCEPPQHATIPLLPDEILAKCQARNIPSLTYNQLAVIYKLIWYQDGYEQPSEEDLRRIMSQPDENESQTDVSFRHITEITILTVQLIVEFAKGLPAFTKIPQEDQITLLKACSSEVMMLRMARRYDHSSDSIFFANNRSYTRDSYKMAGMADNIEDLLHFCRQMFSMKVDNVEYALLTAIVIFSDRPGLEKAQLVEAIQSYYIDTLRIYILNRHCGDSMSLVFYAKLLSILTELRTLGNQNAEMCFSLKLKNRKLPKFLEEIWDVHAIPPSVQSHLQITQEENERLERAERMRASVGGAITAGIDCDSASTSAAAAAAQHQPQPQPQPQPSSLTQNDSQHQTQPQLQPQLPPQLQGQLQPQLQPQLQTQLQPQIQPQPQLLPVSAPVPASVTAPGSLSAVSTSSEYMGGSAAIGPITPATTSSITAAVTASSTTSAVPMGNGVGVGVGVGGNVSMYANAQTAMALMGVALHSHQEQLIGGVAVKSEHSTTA
T1 sequence 2: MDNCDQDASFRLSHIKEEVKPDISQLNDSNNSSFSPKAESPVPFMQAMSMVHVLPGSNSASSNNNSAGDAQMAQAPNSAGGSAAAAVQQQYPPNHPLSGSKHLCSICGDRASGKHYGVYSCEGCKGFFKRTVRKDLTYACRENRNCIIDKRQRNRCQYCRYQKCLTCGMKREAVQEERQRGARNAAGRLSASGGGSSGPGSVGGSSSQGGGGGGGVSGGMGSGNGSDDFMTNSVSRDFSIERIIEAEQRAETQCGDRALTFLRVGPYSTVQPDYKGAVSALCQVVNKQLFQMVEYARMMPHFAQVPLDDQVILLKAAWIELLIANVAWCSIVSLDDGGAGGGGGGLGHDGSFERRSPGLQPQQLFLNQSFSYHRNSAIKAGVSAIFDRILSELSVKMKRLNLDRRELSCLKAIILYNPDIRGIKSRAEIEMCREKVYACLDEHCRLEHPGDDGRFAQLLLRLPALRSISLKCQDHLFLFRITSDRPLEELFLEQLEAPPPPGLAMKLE
In words: competition; competes as effectively as hsp27-EcRE.

Data set [2] has as its target T1, EcR/usp heterodimer. In words: competition; effective competitor of hsp27-EcRE binding.
In another data set the target is T2, Ecdysone receptor (EcR) (Drosophila melanogaster, UniProt P34021 P34021:1-878).
T2 sequence: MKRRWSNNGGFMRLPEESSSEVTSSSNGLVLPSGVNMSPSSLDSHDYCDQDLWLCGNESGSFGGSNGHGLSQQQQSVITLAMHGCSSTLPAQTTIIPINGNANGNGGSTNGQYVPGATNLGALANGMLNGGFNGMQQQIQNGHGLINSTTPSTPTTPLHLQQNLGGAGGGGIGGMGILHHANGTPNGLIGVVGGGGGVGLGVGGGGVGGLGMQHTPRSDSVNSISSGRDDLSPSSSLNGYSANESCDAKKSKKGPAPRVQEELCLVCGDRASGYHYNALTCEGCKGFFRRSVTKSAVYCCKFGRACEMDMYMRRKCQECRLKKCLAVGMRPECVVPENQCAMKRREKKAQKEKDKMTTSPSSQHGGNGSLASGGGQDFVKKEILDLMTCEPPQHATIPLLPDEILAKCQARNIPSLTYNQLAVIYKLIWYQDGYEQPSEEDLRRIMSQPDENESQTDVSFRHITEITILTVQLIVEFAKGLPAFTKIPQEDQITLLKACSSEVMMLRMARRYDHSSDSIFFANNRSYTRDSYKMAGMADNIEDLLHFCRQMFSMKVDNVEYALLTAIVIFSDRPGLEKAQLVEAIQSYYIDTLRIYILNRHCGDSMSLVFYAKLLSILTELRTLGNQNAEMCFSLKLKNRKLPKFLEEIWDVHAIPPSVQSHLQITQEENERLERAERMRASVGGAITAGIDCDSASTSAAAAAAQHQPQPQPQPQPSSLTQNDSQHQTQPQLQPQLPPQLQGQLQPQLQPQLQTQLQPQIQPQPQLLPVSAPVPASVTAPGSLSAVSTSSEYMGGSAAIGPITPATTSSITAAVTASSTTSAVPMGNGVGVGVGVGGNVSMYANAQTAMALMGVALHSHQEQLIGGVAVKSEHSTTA
Put plainly: EMSA; EcR alone. To be noted: label: 32P. The protocol:
(§1) For gel mobility shift assay, proteins were incubated with binding buffer, which contained 100 mM KCl, 7.5% glycerol, 20 mM HEPES pH 7.5, 2 mM DTT and 0.1% NP-40, on ice for 20 minutes in the presence of 2 μg of nonspecific competitor poly dI-dC and other oligo competitors. Then approximately 1 ng of ^32P-dCTP probe, which was labelled to specific activity about 1-5×10^8 cpm/μg by fill-in reaction with Klenow fragments, was added to the reaction and incubated at room temperature for 20 minutes. Antiserum or preimmune serum was added 10 minutes after the probe was added. The reaction was then loaded into 5% non-denaturing polyacrylamide gel in 0.5×TBE running buffer [1×TBE comprises 0.089 M Tris borate, 0.089 M boric acid and 0.002 M EDTA]. After electrophoresis, the gel was dried for autoradiography.
(§2) The EcR and usp interaction was also tested under more defined conditions. In vitro translated EcR and usp were prepared and their interaction was assayed by gel mobility shift assays. […] To test whether usp can complement EcR DNA binding, as it does with mammalian receptors, both usp and EcR were co-incubated in the reaction. In the presence of both receptors, a novel high affinity DNA binding complex appeared. […] This complex is proposed to be a heterodimeric species, which is consistent with the observation of other usp heterodimers.

The next data set deals with T3, ultraspiracle (usp) (Drosophila melanogaster, UniProt P20153 SEQ:1-513).
T3 sequence: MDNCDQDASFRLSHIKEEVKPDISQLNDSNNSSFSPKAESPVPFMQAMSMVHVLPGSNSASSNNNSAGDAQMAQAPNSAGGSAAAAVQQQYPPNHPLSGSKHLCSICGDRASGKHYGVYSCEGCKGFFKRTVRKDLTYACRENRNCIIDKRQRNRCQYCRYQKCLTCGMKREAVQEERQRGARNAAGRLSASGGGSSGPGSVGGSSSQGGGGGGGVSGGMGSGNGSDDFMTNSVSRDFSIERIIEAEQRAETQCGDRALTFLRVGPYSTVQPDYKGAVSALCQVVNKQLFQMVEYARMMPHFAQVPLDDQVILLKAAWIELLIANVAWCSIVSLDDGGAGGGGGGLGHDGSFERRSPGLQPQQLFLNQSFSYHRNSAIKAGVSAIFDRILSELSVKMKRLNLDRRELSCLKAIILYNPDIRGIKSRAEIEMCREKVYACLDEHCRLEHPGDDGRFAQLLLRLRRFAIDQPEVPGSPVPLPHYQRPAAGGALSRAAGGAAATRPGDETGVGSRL
Put plainly: EMSA; usp alone. To be noted: label: 32P. The protocol:
as §1, §2
For orientation: In EMSA bound probe runs differently from free probe, usually more slowly.

Data set [3] concerns the target T1, EcR/usp heterodimer. Put plainly: EMSA; high affinity complex; usp antibody supershift. To be noted: label: 32P. The protocol: as §1, §2
Data set [4] concerns the target T1, EcR/usp heterodimer. Put plainly: competition; does not compete hsp27-EcRE binding.
The target of the next data set is T4, usp/TRβ heterodimer (Drosophila melanogaster / Homo sapiens, UniProt P20153;P10828 P20153:1-508,P10828:1-461).
T4 sequence 1: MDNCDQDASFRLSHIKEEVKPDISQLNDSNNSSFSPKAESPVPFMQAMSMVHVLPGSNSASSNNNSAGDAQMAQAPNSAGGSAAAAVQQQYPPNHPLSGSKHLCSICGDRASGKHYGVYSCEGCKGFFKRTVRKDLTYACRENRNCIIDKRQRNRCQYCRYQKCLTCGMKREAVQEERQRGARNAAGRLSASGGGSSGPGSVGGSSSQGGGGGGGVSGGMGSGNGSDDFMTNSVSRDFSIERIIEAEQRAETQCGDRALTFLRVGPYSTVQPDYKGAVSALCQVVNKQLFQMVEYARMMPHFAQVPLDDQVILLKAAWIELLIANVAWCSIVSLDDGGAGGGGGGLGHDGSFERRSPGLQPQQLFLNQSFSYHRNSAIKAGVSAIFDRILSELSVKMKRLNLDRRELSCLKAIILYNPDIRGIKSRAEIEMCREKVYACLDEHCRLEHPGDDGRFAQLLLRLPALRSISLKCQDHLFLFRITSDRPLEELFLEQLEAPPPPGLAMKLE
T4 sequence 2: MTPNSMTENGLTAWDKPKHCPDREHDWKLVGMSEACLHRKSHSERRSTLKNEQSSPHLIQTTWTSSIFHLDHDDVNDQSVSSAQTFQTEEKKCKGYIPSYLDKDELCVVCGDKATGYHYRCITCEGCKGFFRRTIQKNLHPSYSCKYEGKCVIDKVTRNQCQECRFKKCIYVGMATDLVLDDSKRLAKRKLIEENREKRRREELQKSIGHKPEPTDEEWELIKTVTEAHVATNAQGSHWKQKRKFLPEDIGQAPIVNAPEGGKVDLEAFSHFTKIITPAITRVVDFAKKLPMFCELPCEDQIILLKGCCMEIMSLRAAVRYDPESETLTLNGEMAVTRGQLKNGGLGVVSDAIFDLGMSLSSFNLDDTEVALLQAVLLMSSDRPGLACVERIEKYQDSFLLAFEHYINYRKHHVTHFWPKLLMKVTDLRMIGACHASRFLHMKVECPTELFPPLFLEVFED
Put plainly: EMSA; usp dependent; usp antibody supershift. To be noted: label: 32P. The protocol:
as §1
Using in vitro translated usp protein, interaction of usp with three mammalian nuclear receptors (TRβ, VDR and PPAR) was tested in gel mobility shift assays with the appropriate response element for each of the three receptors as the probes.

B1: Eip28/29-EcRE (dsDNA)
DNA 1: TAAAGGATCTTGACCCCAATGAACTTCTTA
DNA 2: TAAGAAGTTCATTGGGGTCAAGATCCTTTA
B1: the binding result with EcR/usp heterodimer [1] is given as “binds”.

B2: 15N-EcRE (dsDNA)
DNA 1: ATGAAGTGCATTGAACCCGCTCGA
DNA 2: TCGAGCGGGTTCAATGCACTTCAT
On to B2, for which the binding result with EcR/usp heterodimer [2] was “binds”.

B3: hsp27-EcRE (dsDNA)
DNA 1: ATTGGACAAGTGCATTGAACCCTTGTCTCT
DNA 2: AGAGACAAGGGTTCAATGCACTTGTCCAAT
In the case of B3, the binding result is “no binding” with Ecdysone receptor (EcR), “no binding” with ultraspiracle (usp) and “binds” in the data set with EcR/usp heterodimer [3].

B4: 11N-EcRE (dsDNA)
DNA 1: ATGCTGTGCATTGAACGTGCTCGA
DNA 2: TCGAGCACGTTCAATGCACAGCAT
Take B4: the binding result in the data set with EcR/usp heterodimer [4] is “no binding”.

B5: MLV-TRE (DR4) (dsDNA)
DNA 1: GGGTCATTTCAGGTCC
DNA 2: GGACCTGAAATGACCC
For the molecule B5, the binding result with usp/TRβ heterodimer is recorded as “binds”.
